# Reference: the nanobody polyreactivity screen of Harvey et al. (2022)
# Assay: yeast display, Sf9 membrane polyspecificity reagent, FACS + sequencing; frameworks hold sequencing errors
# Method in brief: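 Sorting gates, low and high (top ~1%), were placed on anti-HA fluorescence to track expression and on streptavidin fluorescence to track reagent binding. A clone's polyreactivity label is taken from the gate it came out of. The reagent was 10% biotinylated, detergent-solubilized Sf9 membrane, applied for 1 hour at 4 °C to galactose-induced yeast display cells.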
sequence,measurement,value
QVQLVESGGGLVQAGGSLRLSCAASGSTLYKYAMGWYRQAPGKERELVATITRTDSTNYADSVKGRFTISRDNAKNTVYLQMNSLKPEDTAVYYCNRGFDWWYRYRHYDYWGQGTQVTVSS,polyreactivity (PSR sort gate),low polyreactivity
QVQLVESGGGLVQAGGSLRLSCASSGGTFSPYAMVWYIQAPGKEREMVAVIRSDVTTNYADSVKGRFTISRDNAKNTLYLQMNRLKPEDTAVYYCAVQYLGYGGLFPLDYWGQGTQVTVSS,polyreactivity (PSR sort gate),low polyreactivity
QVQLVESGGGLVQAGGSLRLSCAASGFIFSAYAMGWYRQAPGKERELVAAISYSGGTTYYADSVKGRFTISRDNAKNTVYLQMNSLKPEDTAVYYCAAGVGYWGQGTQVTVSS,polyreactivity (PSR sort gate),high polyreactivity
QVQLVESGGGIVQAGGSLRLSCAASGLIFYTYAMGWYRQAPGKEREIVAAISRRGGSTYYADSVKGRFTISRDNAKNTVYLQMNSLKPEDTAVYYCNARGGRYGTYSHYGYWGQGTQVTVSS,polyreactivity (PSR sort gate),high polyreactivity
QVQLVESGGGLVQAGGSLRLSCAASGSTFLLYAMGWYRPAPGKERELVATISWGGDGTYYADSVKGRFTISRDNAKNTVYLQMNSLKPEDTAVYYCAAESYLVQFYFLYYYWGQGTQVTVSS,polyreactivity (PSR sort gate),low polyreactivity
QVQLVESGGGLVQAGGSLRLSCAASGFTFWYNDMGWYRQAPGKEREFVAAITTSGGNTYYADSVKGRFTISRDNAKNTVYLQMNSLKPEDTAVYYCAAEEGSSDATGYDYWGQGTQVTVSS,polyreactivity (PSR sort gate),low polyreactivity
QVQLVESGGGLVQAGGSLRLSCAASGSIFGRYAMGWYRQAPGKERELVASIYSSGSTYYADSVKGRFTISRDNAKNTVYLQMNSLKPEDTAVYYCAAQISVWGYRVGYTKYYYWGQGTQVTVSS,polyreactivity (PSR sort gate),high polyreactivity
RVQLVESGGGLFHAGGSLRLSCAASGRTFPTYDMGWYRQAPGKERELVAAINWSGGSTYYADSVKGRFTISRDNAKNTVYLQINSLKPEDTAVYYCNAELLRPSTLGVYLARNYWGQGSQVTVSS,polyreactivity (PSR sort gate),low polyreactivity
QVQLVDSGGGLVQAGGSLRLSCAASGSIFDSYVKGWYRQAPGKERELVAAITYSGGSTYADSVKGRFTISRDNAKNTVYLQMNSLKPEDTAVYYCAAASYFYMFLLEDYWGQGTHVTVSS,polyreactivity (PSR sort gate),low polyreactivity
QVQLVESGGGLVQAGGSLRLICAASVTTFPYYAMGWYRQAPGKERELVAAITSSGGSTYYADSVKGRFTISRDNAKNTVYLQMNSLIPEDTAVYYCAKGYGPYRQMNYWGQGTQVTVSS,polyreactivity (PSR sort gate),low polyreactivity
QVQLVESGGGLVQAGGSLRLSCAASGRTFVYNAMGWYRQAPGKERELVAAISFGGGNTYYADSVKGRFTISRDNAKNTVYLQMNSLKPEYTAVYYCAARAGAGPLDYDYWGQGTQVTVSS,polyreactivity (PSR sort gate),low polyreactivity
QVQLVESGGGLVQAGGSLRLRCAASGRTFRYYAMGWYRQAPGKEREVVAAITRSGGSTYYADSVKGRFTISRDNAKNTVYLQMNSLKPEDTAVYYCAASRFTSYGIDYDYCGQGTQVTVSS,polyreactivity (PSR sort gate),high polyreactivity
QVQLVESGGGLVQAGGSLRLTCAASGRTFRIYAMGWYRQAPGKERELVAAIRWSGGTTYYADSVKGRFTISRDNAKNTVYFQMNSLKPEDTAVYYCAADSTNRYDYWGQGTQVTVSS,polyreactivity (PSR sort gate),high polyreactivity
QVQLVESGGGLVQAGGSLRLSCAASGRTFSWYAMGGYRQAPGTERELVASISRGGSKSYADSVKGRFTISRDNAKNTVYLQMNSLKPEYTAVYYCAAGGFARTISYYWGQGTQVTVSS,polyreactivity (PSR sort gate),high polyreactivity
QVQLVESGGGLVQAGGSLRLSCAASGRTFYLYAMGWYRQAPGKERELVAAITWRGGSTYYADSVKGRFTISRDNAKNTVYLQMNSLKPEDTAVYYCSAVTFFYYSAVRYEYYYWGQGTQVTVSS,polyreactivity (PSR sort gate),high polyreactivity
QVQLVESGGGLVQAGGSLRLSCAASGSIFYLYTMGWYRQAPWKERELVAGISNGDRTYYADSVKGRFTISRDNAKNTVYLQMNSLKPEDTAVYYCAVTVYWYSRAAEYDYWGQGTQVTVSS,polyreactivity (PSR sort gate),low polyreactivity
QVQLVESGVGLVQAGGSLRLSCAASGRIFAPYAMGWYRQAPGKERELVAAIRWRGGSTSYADSVKGRFTISRDNAKNTVYLQMNSLKPEDTAVYYCNADYGFSFYWYDYWGQGTQVTVSS,polyreactivity (PSR sort gate),low polyreactivity
